Source: patent US20240301385, “DNA MODIFYING ENZYMES AND ACTIVE FRAGMENTS AND VARIANTS THEREOF AND METHODS OF USE” (LIFEEDIT THERAPEUTICS, INC., published 2024)

T1: APG00868-L16-nAPG07433.1 (synthetic)
T1 chain: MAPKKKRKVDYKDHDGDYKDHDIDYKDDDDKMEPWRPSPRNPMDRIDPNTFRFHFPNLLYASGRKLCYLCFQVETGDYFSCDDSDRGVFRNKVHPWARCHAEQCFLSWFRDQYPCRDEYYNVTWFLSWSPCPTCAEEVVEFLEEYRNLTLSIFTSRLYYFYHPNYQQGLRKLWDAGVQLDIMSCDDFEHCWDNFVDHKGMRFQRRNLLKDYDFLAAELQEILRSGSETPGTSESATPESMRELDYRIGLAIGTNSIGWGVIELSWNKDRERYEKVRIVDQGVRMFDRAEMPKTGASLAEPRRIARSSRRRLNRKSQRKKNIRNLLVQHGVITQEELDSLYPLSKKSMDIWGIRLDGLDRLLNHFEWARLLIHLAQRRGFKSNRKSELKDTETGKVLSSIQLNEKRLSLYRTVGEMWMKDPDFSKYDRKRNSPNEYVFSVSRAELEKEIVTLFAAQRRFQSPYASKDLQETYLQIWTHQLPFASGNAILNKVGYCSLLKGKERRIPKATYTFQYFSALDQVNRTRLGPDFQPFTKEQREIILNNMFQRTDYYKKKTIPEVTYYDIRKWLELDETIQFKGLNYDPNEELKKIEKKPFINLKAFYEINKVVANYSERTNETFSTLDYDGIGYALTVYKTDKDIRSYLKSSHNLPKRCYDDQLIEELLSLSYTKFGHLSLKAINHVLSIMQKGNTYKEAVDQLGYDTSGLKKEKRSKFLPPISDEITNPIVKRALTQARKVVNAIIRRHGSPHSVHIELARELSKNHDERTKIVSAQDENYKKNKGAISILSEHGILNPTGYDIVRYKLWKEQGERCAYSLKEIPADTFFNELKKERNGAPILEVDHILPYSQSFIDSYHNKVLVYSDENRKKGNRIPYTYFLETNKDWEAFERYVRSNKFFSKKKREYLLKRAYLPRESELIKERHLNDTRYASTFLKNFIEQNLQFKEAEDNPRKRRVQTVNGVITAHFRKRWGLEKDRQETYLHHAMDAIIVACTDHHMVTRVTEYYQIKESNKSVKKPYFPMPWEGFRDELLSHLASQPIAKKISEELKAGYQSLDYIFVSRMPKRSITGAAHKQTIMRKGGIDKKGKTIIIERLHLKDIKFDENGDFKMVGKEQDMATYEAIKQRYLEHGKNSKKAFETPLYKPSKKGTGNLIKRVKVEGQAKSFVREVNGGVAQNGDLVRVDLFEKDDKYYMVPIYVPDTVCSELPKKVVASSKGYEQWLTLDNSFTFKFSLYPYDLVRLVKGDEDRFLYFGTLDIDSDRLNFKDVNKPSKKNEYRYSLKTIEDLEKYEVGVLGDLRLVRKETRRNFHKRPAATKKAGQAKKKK

B1: SGN000929 sgRNA ; SGN000929 target (ssRNA ; dsDNA)
RNA: AUCUGGAGGGAACUUACAGCAUAUGGUCAUAGUUCCAUGAAAGCCAAAAGUGGCUUUGAUGUUUCUAUGAUAAGGGUUUCGGCCCGUGGCGUCGGGGAUCGCCUGCCCAUUCCGAUGGGCUUCUCCCCAUUUAUU
DNA 1: ATCTGGAGGGAACTTACAGCATATG
DNA 2: CATATGCTGTAAGTTCCCTCCAGAT
B2: SGN000930 sgRNA ; SGN000930 target (ssRNA ; dsDNA)
RNA: GAACAACUCAAAUGGAAAUGAAUAUGUCAUAGUUCCAUGAAAGCCAAAAGUGGCUUUGAUGUUUCUAUGAUAAGGGUUUCGGCCCGUGGCGUCGGGGAUCGCCUGCCCAUUCCGAUGGGCUUCUCCCCAUUUAUU
DNA 1: GAACAACTCAAATGGAAATGAATAT
DNA 2: ATATTCATTTCCATTTGAGTTGTTC
B3: SGN001101 sgRNA ; SGN001101 target (ssRNA ; dsDNA)
RNA: AUAUUUUCUUUAAUGGUGCCAGGCAGUCAUAGUUCCAUUAAAGCCAAAAGUGGCUUUGAUGUUUCUAUGAUAAGGGUUUCGACCCGUGGCGUCGGGGAUCGCCUGCCCAUUGAAAUGGGCUUCUCCCCAU
DNA 1: ATATTTTCTTTAATGGTGCCAGGCA
DNA 2: TGCCTGGCACCATTAAAGAAAATAT
B4: SGN000169 sgRNA ; SGN000169 target (ssRNA ; dsDNA)
RNA: CACAUCUCGAGCAAGACGUUGUCAUAGUUCCAUUAAAGCCAAAAGUGGCUUUGAUGUUUCUAUGAUAAGGGUUUCGACCCGUGGCGUCGGGGAUCGCCUGCCCAUUGAAAUGGGCUUCUCCCCAUUUAUU
DNA 1: CACATCTCGAGCAAGACGTT
DNA 2: AACGTCTTGCTCGAGATGTG

Legend:
Assay in all cases: cell_activity; HEK293FT; PAM SEQ 152
Details in all cases: tags: SV40 NLS, 3xFLAG N-term; nucleoplasmin NLS C-term
[1] = molecular target: APG05840-L16-nAPG07433.1 (synthetic)
Protocol: (§1) 500 ng of plasmid comprising an expression cassette comprising a coding sequence for each fusion protein shown in Table 3 and 500 ng of plasmid comprising an expression cassette encoding an sgRNA shown in Table 4 were co-transfected into HEK293FT cells at 75-90% confluency in 24-well plates using Lipofectamine 2000 reagent (Life Technologies). Cells were then incubated at […] for 72 h. Following incubation, genomic DNA was then extracted using NucleoSpin 96 Tissue (Macherey-Nagel) following the manufacturer's protocol. The genomic region flanking the targeted genomic site was PCR amplified using the primers in Table 4 and products were purified using ZR-96 DNA Clean and Concentrator (Zymo Research) following the manufacturer's protocol. The purified PCR products were then sent for Next Generation Sequencing on Illumina MiSeq (2×250). Results were analyzed for INDEL formation or introduction of % specific cytosine mutations.
(§2) The position of each nucleotide in the target sequence was determined. “C17” indicates, for example, a cytosine at position 17 of the target sequence. The position of each nucleotide in the target sequence was determined by numbering the first nucleotide in the target sequence closest to the PAM as position 1, and the position number increases in the 3′ direction away from the PAM sequence.

[2] = molecular target: APG05840.1-L16-nAPG07433.1 (truncated deaminase) (synthetic)
Protocol: as §1, §2

[3] = molecular target: T1, APG00868-L16-nAPG07433.1
Protocol: as §1, §2

Row | Binder | activity [1] | activity [2] | activity [3]
1 | B1 | 27.7 % mutated reads | 22.3 % mutated reads | 20.6 % mutated reads
2 | B2 | 22.4 % mutated reads | – | –
3 | B3 | 24.3 % mutated reads | 23.8 % mutated reads | 24.4 % mutated reads
4 | B4 | – | 30.2 % mutated reads | 16.4 % mutated reads
